Results: publication doi:10.1101/2025.11.26.690573

Key:
[1] = target: biotinylated N8~CRL1 with wild type RBX1 (UniProt Q15843); assay: BLI; CSN and N8~CRL1 in a saturating amount of CSN5i-3; who was immobilised not given
[2] = target: biotinylated N8~CRL1 with wild type RBX1 (UniProt Q15843); assay: BLI; CSN and N8~CRL1 in a saturating amount of CSN5i-1a; who was immobilised not given

## COP9 signalosome (CSN), eight-subunit complex, tag-free (from UniProt Q13098 1-491; P61201 1-443; Q9UNS2 1-409; Q9BT78 1-406; Q92905 1-334; Q7L5N1 1-327; Q9H9Q2 1-239; Q99627 1-209)
[1]
  KD with CSN5i-3: 26 nM
[2]
  KD with CSN5i-1a: 1800 nM
